# T1: FLAG-tagged Npl4 (S. cerevisiae, UniProt P33755 1-580)
# T1 sequence: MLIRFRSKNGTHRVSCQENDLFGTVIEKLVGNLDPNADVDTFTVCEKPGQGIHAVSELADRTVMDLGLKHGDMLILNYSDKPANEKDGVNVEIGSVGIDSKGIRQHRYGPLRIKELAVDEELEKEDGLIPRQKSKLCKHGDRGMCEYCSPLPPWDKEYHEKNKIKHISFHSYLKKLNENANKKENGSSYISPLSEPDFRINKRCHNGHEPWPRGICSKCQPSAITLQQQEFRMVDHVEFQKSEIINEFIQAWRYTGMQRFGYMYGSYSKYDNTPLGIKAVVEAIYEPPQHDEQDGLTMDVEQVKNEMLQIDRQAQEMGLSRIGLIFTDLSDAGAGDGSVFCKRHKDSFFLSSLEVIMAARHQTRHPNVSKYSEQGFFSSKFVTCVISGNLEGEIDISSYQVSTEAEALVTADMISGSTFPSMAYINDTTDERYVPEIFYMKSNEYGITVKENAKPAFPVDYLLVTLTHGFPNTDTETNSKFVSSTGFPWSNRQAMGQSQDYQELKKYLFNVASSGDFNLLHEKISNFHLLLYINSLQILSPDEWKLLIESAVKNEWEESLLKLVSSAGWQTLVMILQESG
# B1: Cdc48^2Cys (Cdc48 containing S286C and R333C) (enzyme, S. cerevisiae)
# chain: MGEEHKPLLDASGVDPREEDKTATAILRRKKKDNMLLVDDAINDDNSVIAINSNTMDKLELFRGDTVLVKGKKRKDTVLIVLIDDELEDGACRINRVVRNNLRIRLGDLVTIHPCPDIKYATRISVLPIADTIEGITGNLFDVFLKPYFVEAYRPVRKGDHFVVRGGMRQVEFKVVDVEPEEYAVVAQDTIIHWEGEPINREDEENNMNEVGYDDIGGCRKQMAQIREMVELPLRHPQLFKAIGIKPPRGVLMYGPPGTGKTLMARAVANETGAFFFLINGPEVMCKMAGESESNLRKAFEEAEKNAPAIIFIDEIDSIAPKRDKTNGEVERCVVSQLLTLMDGMKARSNVVVIAATNRPNSIDPALRRFGRFDREVDIGIPDATGRLEVLRIHTKNMKLADDVDLEALAAETHGYVGADIASLCSEAAMQQIREKMDLIDLDEDEIDAEVLDSLGVTMDNFRFALGNSNPSALRETVVESVNVTWDDVGGLDEIKEELKETVEYPVLHPDQYTKFGLSPSKGVLFYGPPGTGKTLLAKAVATEVSANFISVKGPELLSMWYGESESNIRDIFDKARAAAPTVVFLDELDSIAKARGGSLGDAGGASDRVVNQLLTEMDGMNAKKNVFVIGATNRPDQIDPAILRPGRLDQLIYVPLPDENARLSILNAQLRKTPLEPGLELTAIAKATQGFSGADLLYIVQRAAKYAIKDSIEAHRQHEAEKEVKVEGEDVEMTDEGAKAEQEPEVDPVPYITKEHFAEAMKTAKRSVSDAELRRYEAYSQQMKASRGQFSNFNFNDAPLGTTATDNANSNNSAPSGAGAAFGSNAEEDDDLYS
# modifications: disulfide bridges between neighbouring protomers after oxidation
# B2: Ufd1 (natural protein, S. cerevisiae, UniProt P53044 1-361, looked up)
# chain: MFSGFSSFGGGNGFVNMPQTFEEFFRCYPIAMMNDRIRKDDANFGGKIFLPPSALSKLSMLNIRYPMLFKLTANETGRVTHGGVLEFIAEEGRVYLPQWMMETLGIQPGSLLQISSTDVPLGQFVKLEPQSVDFLDISDPKAVLENVLRNFSTLTVDDVIEISYNGKTFKIKILEVKPESSSKSICVIETDLVTDFAPPVGYVEPDYKALKAQQDKEKKNSFGKGQVLDPSVLGQGSMSTRIDYAGIANSSRNKLSKFVGQGQNISGKAPKAEPKQDIKDMKITFDGEPAKLDLPEGQLFFGFPMVLPKEDEESAAGSKSSEQNFQGQGISLRKSNKRKTKSDHDSSKSKAPKSPEVIEID
# Tests used:
# [1] = target: the molecule itself; test: cross-linking
# [2] = target: T1, FLAG-tagged Npl4; test: pull-down
binder,measurement,setting,value
B1,stoichiometry N,[1],6
B2,binding result,[2],binds

# Reference: publication PMC8818041 (Molecular cell, 2021)
